B1: Unconjugated peptide 1 (peptide)
peptide: AEQRGELAIKDANAKLSELEAALQRAKQDC
B2: Murine monoclonal antibody D-A10 (antibody, V domains shown)
VH: EVQLLETGGGLVQPGGSRGLSCEGSGFTFSGFWMSWVRQTPGKTLEWIGDINSDGSAIKYAPSIKDRFTIFRDNDKSTLYLQMSNVRSEDTATYFCIAHYSGGGFAYWGQGTSVTVSS
VL: NIVMTQAAPSVPVTPGESVSISCRSSKSLLYSNGNTYLYWFLQRPGQSPQRLIYYMSNLASGVPDRFSGRGSGTDFTLRISRVEAEDVGVYYCMQSLEYPFTFGGGTKLEIK
notes: Murine IgG from a hybridoma, purified from ascitic fluid on protein A; also called mD-A10 Mab; mD-A10

Ends that are not written are not given here.

The target in assay [1] is B2. The experiment in a line: flow cytometry competition, free peptide against biotinylated antibody on Isreco-1 cells. The procedure: 2.10⁵ Isreco-1 cells per 96-wells were incubated with a biotinylated antibody anti-CK8 (12.5 μg/mL) with or without peptide 1 or peptide 2 tested at different concentrations and incubated at 4° C. for 30 min. Unbound antibody was washed away with PBS (Invitrogen, Villebon sur Yvette, France) supplemented by 1% Bovine Serum Albumin (Sigma, St Quentin Fallavier, France). Subsequently, cells were centrifuged (5 min at 400 g) and bound antibody was detected with Phycoerythrin conjugated Streptavidin (Interchim, Montlucon, France) at 4° C. for 30 min. Detection reagent was washed away and cells were centrifuged (5 min at 400 g) and suspended in 300 μL PBS. Bound detection antibody was quantified on a FACS CAN (BD Biosciences, Rungis, France), (FL2 channel, 2 000 events per acquisition). During the experiment, the respective isotype controls were included to exclude any unspecific binding events. The presence of peptide 1 inhibits cell labelling with the mD-D6 or mD-A10 Mab without any significant impact on M20 Mab cellular staining.
In general terms: In flow cytometry, cells or beads pass a laser one at a time.

The target in the assay “Unconjugated peptide 1” is B1. The experiment in a line: ELISA, coated unconjugated peptide. The protocol:
(§1) The CK8 peptides, coupled or not with the bovine serum albumin (BSA) at the SH group of the C-terminal cysteine, were immobilized (0.5 μg/ml or 1 μg/ml respectively) at the bottom of the wells of a 96 well plate overnight at room temperature. Unbound peptides are washed away with purified water supplemented by Tween (Sigma, St Quentin Fallavier, France). The wells are then saturated with a saline phosphate buffer solution (PBS) containing 5% BSA for 2 hours at room temperature (RT). Then the plates are washed away with purified water supplemented by Tween. The Mab binding to the coated peptides is tested at different Mab concentrations following an incubation for 2 hours at RT in PBS (Invitrogen, Villebon sur Yvette, France) supplemented by 1% Bovine Serum Albumin (Sigma, St Quentin Fallavier, France). Unbound Mabs are washed away with purified water supplemented by Tween. […] The absorbance is read at 450 nm and corrected at 630 nm. The specific requirements for the different experiments are detailed below.
(§2) The unconjugated peptides 1, 5 to 28 of human CK8 were immobilized (2 μg/ml) at the bottom of a 96-wells plate. Different Mab concentrations (from 10 μg/mL then diluted at 1/10) were incubated for 2 hours at room temperature alone or with each peptide tested. The optical density values (OD) was read at 450 nm and corrected at 630 nm. The results are shown in FIG. 13A (related to mD-A10) or on FIG. 13B (related to M20).
(In general: In an ELISA, binding on a coated surface is turned into a signal by an enzyme label.)

The target in another assay is T1, Unconjugated peptide 5 (human).
T1 peptide: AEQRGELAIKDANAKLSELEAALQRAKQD
The experiment in a line: ELISA, coated unconjugated peptide. The protocol:
as §1, §2

Another assay deals with T2, Unconjugated peptide 6 (human).
T2 peptide: AALQRAKQD
Briefly: ELISA, coated unconjugated peptide. The procedure:
as §1, §2

The target in another assay is T3, Unconjugated peptide 7 (human).
T3 peptide: EAALQRAKQD
The experiment in a line: ELISA, coated unconjugated peptide. The protocol:
as §1, §2

Another assay concerns the target T4, Unconjugated peptide 8 (human).
T4 peptide: LEAALQRAKQD
Briefly: ELISA, coated unconjugated peptide. The protocol:
as §1, §2

The target of the next assay is T5, Unconjugated peptide 9 (human).
T5 peptide: ELEAALQRAKQD
The experiment in a line: ELISA, coated unconjugated peptide. The protocol:
as §1, §2

A further assay deals with T6, Unconjugated peptide 10 (human).
T6 peptide: SELEAALQRAKQD
The experiment in a line: ELISA, coated unconjugated peptide. The procedure:
as §1, §2

The next assay addresses T7, Unconjugated peptide 11 (human).
T7 peptide: LSELEAALQRAKQD
The experiment in a line: ELISA, coated unconjugated peptide. The protocol:
as §1, §2

A further assay deals with T8, Unconjugated peptide 12 (human).
T8 peptide: KLSELEAALQRAKQD
Briefly: ELISA, coated unconjugated peptide. The protocol:
as §1, §2

For the next assay, the target named is T9, Unconjugated peptide 13 (human).
T9 peptide: AKLSELEAALQRAKQD
The experiment in a line: ELISA, coated unconjugated peptide. The protocol: as §1, §2

The next assay concerns the target T10, Unconjugated peptide 14 (human).
T10 peptide: NAKLSELEAALQRAKQD
Briefly: ELISA, coated unconjugated peptide. The protocol:
as §1, §2

A further assay addresses T11, Unconjugated peptide 15 (human).
T11 peptide: ANAKLSELEAALQRAKQD
Briefly: ELISA, coated unconjugated peptide. The procedure: as §1, §2

For another assay, the target named is T12, Unconjugated peptide 16 (human).
T12 peptide: DANAKLSELEAALQRAKQD
The experiment in a line: ELISA, coated unconjugated peptide. The procedure: as §1, §2

The target of another assay is T13, Unconjugated peptide 17 (human).
T13 peptide: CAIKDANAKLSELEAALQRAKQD
Briefly: ELISA, coated unconjugated peptide. The procedure:
as §1, §2

The target in a further assay is T14, Unconjugated peptide 18 (human).
T14 peptide: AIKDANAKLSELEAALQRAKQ
The experiment in a line: ELISA, coated unconjugated peptide. The procedure: as §1, §2

A further assay deals with T15, Unconjugated peptide 19 (human).
T15 peptide: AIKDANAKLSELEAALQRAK
Briefly: ELISA, coated unconjugated peptide. The procedure: as §1, §2

A further assay addresses T16, Unconjugated peptide 20 (human).
T16 peptide: AIKDANAKLSELEAALQRA
The experiment in a line: ELISA, coated unconjugated peptide. The procedure:
as §1, §2

The next assay concerns the target T17, Unconjugated peptide 21 (human).
T17 peptide: AIKDANAKLSELEAALQR
The experiment in a line: ELISA, coated unconjugated peptide. The procedure:
as §1, §2

The target of a further assay is T18, Unconjugated peptide 22 (human).
T18 peptide: AIKDANAKLSELEAALQ
The experiment in a line: ELISA, coated unconjugated peptide. The protocol: as §1, §2

For the next assay, the target named is Unconjugated peptide 23 (human). The experiment in a line: ELISA, coated unconjugated peptide. The protocol: as §1, §2
The target of the next assay is T19, Unconjugated peptide 24 (human).
T19 peptide: AIKDANAKLSELEAA
Briefly: ELISA, coated unconjugated peptide. The protocol:
as §1, §2

For a further assay, the target named is T20, Unconjugated peptide 25 (human).
T20 peptide: AIKDANAKLSELEA
Briefly: ELISA, coated unconjugated peptide. The procedure: as §1, §2

The next assay addresses T21, Unconjugated peptide 26 (human).
T21 peptide: AIKDANAKLSELE
The experiment in a line: ELISA, coated unconjugated peptide. The protocol:
as §1, §2

The next assay deals with T22, Unconjugated peptide 27 (human).
T22 peptide: AIKDANAKLSEL
Briefly: ELISA, coated unconjugated peptide. The procedure:
as §1, §2

In another assay the target is T23, Unconjugated peptide 28 (human).
T23 peptide: AIKDANAKLSE
The experiment in a line: ELISA, coated unconjugated peptide. The protocol:
as §1, §2

The next assay deals with T24, BSA conjugated peptide 3 (human, also: conjugated to BSA via the thiol of the C-terminal Cys).
T24 peptide: AALQRAKQDC(BSA)
The experiment in a line: ELISA, coated BSA conjugated peptide. The protocol: as §1
(§3) Different Mab concentrations (from 10 μg/mL then diluted at 1/10) were incubated for 2 hours at room temperature with either the peptide 1, peptide 2, peptide 3, peptide 4 or peptide 17. The optical density values (OD) was read at 450 nm and corrected at 630 nm.

The next assay deals with T25, BSA conjugated peptide 4 (human, also: conjugated to BSA via the thiol of the C-terminal Cys).
T25 peptide: SELEAALQRAKQDC(BSA)
The experiment in a line: ELISA, coated BSA conjugated peptide. The procedure: as §1, §3

Assay [2] has as its target T26, BSA conjugated peptide 17 (human, BSA conjugated (the added cysteine is printed at the N-terminus)).
T26 peptide: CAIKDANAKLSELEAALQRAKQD
Briefly: ELISA, coated BSA conjugated peptide. The protocol: as §1, §3

A further assay has as its target T27, BSA conjugated peptide 1 (human, BSA coupled at the SH group of the C-terminal cysteine).
T27 peptide: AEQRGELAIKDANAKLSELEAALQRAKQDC
The experiment in a line: ELISA, coated BSA conjugated peptide. The procedure: as §1, §3

For the next assay, the target named is T28, BSA conjugated peptide 2 (human, BSA coupled at the SH group of the C-terminal cysteine).
T28 peptide: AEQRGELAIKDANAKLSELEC
Briefly: ELISA, coated BSA conjugated peptide. The procedure:
as §1, §3

For the molecule B1, the binding result in assay [1] was “binds”.
For the molecule B2, the binding result with Unconjugated peptide 1 is given as “binds”; with Unconjugated peptide 5, “binds”; with Unconjugated peptide 6, “no binding (tested: from 10 ug/mL then diluted at 1/10)”; in the assay with Unconjugated peptide 7 it was “no binding (tested: from 10 ug/mL then diluted at 1/10)”; in the assay with Unconjugated peptide 8 it was “no binding (tested: from 10 ug/mL then diluted at 1/10)”; with Unconjugated peptide 9 it was “no binding (tested: from 10 ug/mL then diluted at 1/10)”. Moreover, the binding result is recorded as “no binding (tested: from 10 ug/mL then diluted at 1/10)” with Unconjugated peptide 10; “binds” in the assay with Unconjugated peptide 11; “binds” with Unconjugated peptide 12; “binds” with Unconjugated peptide 13; “binds” in the assay with Unconjugated peptide 14; “binds” in the assay with Unconjugated peptide 15. Besides, the binding result with Unconjugated peptide 16, in the assay with Unconjugated peptide 17, with Unconjugated peptide 18, with Unconjugated peptide 19, in the assay with Unconjugated peptide 20 and in the assay with Unconjugated peptide 21 was “binds” in each case. Moreover, the binding result in the assay with Unconjugated peptide 22 was “binds”; with Unconjugated peptide 23, “binds”; with Unconjugated peptide 24, “no binding (tested: from 10 ug/mL then diluted at 1/10)”; with Unconjugated peptide 25, “no binding (tested: from 10 ug/mL then diluted at 1/10)”; in the assay with Unconjugated peptide 26 it was “no binding (tested: from 10 ug/mL then diluted at 1/10)”; with Unconjugated peptide 27, “no binding (tested: from 10 ug/mL then diluted at 1/10)”. Besides, the binding result with Unconjugated peptide 28 was “no binding (tested: from 10 ug/mL then diluted at 1/10)”; with BSA conjugated peptide 3, “no binding (tested: from 10 ug/mL then diluted at 1/10)”; with BSA conjugated peptide 4, “binds”; in [2], “binds”; with BSA conjugated peptide 1, “binds”; with BSA conjugated peptide 2 it was “no binding (tested: from 10 ug/mL then diluted at 1/10)”.

(Values after patent US20180237508A1 (INTERNATIONA DRUG DEVELOPMENT BIOTECH, published 2018).)
